Results reported in publication PMC12375108.

Target: GST-tagged T. marianensis hinT H100N (Thermaerobacter marianensis)
Experiment: BLI; GST-hinT (90 nM) immobilised on anti-GST biosensors; sucA-AMP 500 to 7.81 nM, unmodified sucA at 500 nM; 10 mM Tris pH 8, 150 mM NaCl, 0.1% Triton X-100; KD from steady-state responses, one site

Kd: 9 nM
B1: AMPylated sucA (enzyme)
chain: MQNSALKAWLDSSYLSGANQSWIEQLYEDFLTDPDSVDANWRSTFQQLPGTGVKPDQFHSQTREYFRRLAKDASRYSSTISDPDTNVKQVKVLQLINAYRFRGHQHANLDPLGLWQQDKVADLDPSFHDLTEADFQETFNVGSFASGKETMKLGELLEALKQTYCGPIGAEYMHITSTEEKRWIQQRIESGRATFNSEEKKRFLSELTAAEGLERYLGAKFPGAKRFSLEGGDALIPMLKEMIRHAGNSGTREVVLGMAHRGRLNVLVNVLGKKPQDLFDEFAGKHKEHLGTGDVKYHMGFSSDFQTDGGLVHLALAFNPSHLEIVSPVVIGSVRARLDRLDEPSSNKVLPITIHGDAAVTGQGVVQETLNMSKARGYEVGGTVRIVINNQVGFTTSNPLDARSTPYCTDIGKMVQAPIFHVNADDPEAVAFVTRLALDFRNTFKRDVFIDLVCYRRHGHNEADEPSATQPLMYQKIKKHPTPRKIYADKLEQEKVATLEDATEMVNLYRDALDAGDCVVAEWRPMNMHSFTWSPYLNHEWDEEYPNKVEMKRLQELAKRISTVPEAVEMQSRVAKIYGDRQAMAAGEKLFDWGGAENLAYATLVDEGIPVRLSGEDSGRGTFFHRHAVIHNQSNGSTYTPLQHIHNGQGAFRVWDSVLSEEAVLAFEYGYATAEPRTLTIWEAQFGDFANGAQVVIDQFISSGEQKWGRMCGLVMLLPHGYEGQGPEHSSARLERYLQLCAEQNMQVCVPSTPAQVYHMLRRQALRGMRRPLVVMSPKSLLRHPLAVSSLEELANGTFLPAIGEIDELDPKGVKRVVMCSGKVYYDLLEQRRKNNQHDVAIVRIEQLYPFPHKAMQEVLQQFAHVKDFVWCQEEPLNQGAWYCSQHHFREVIPFGASLRYAGRPASASPAVGYMSVHQKQQQDLVNDALNVE
modifications: multiple AMPylation sites, residues not given
